Substrate in data set [1]: Nc1ncnc2c1ncn2[C@@H]1O[C@H](COP(=O)(O)OP(=O)(O)OP(=O)(O)O)[C@@H](O)[C@H]1O
Put plainly: purified protein. The following applies: 10 mM 2,3DPG constant, Mg2+/ATP molar ratio 0.5, 50 mM MES/KOH pH 6.5, 400 mM KCl, 55°C, two-substrate Michaelis-Menten fit. In kind it is biochemical, Methanothermus fervidus.

Substrate in data set [2]: O=C(O)[C@@H](COP(=O)(O)O)OP(=O)(O)O
Put plainly: purified protein. The data set is classed as biochemical, Methanothermus fervidus. The note with it: 10 mM ATP constant, Mg2+/ATP molar ratio 0.5, 50 mM MES/KOH pH 6.5, 400 mM KCl, 55°C, two-substrate Michaelis-Menten fit.

B1: MfcDPGS (cyclic-2,3-diphosphoglycerate synthetase) (Methanothermus fervidus DSM 2088) (protein)
chain: GETKKMICLVDGEHYFPVVKDSIEILDDLEHIDVVAVVFIGGTEKLQIEDPKEYSEKLGKPVFFGPDPKKIPYDVIKKCVKKYNADIVMDLSDEPVVDYTKRFRIASIVLKEGAVYQGADFKFEPLTEYDVLEKPSIKIIGTGKRIGKTAVSAYAARVIHKHKYNPCVVAMGRGGPREPEIVEGNKIEITAEYLLEQADKGVHAASDHWEDALMSRILTVGCRRCGGGMLGDTFITNVKRGAEIANKLDSDFVIMEGSGAAIPPVKTNRQIVTVGANQPMININNFFGPFRIGLADLVIITMCEEPMATTEKIKKVEKFIKEINPSANVIPTVFRPKPVGNVEGKKVLFATTAPKVVVGKLVNYLESKYGCDVVGVTPHLSNRPLLRRDLKKYINKADLMLTELKAAAVDVATRVAIEAGLDVVYCDNIPVVIDESYGNIDDAIIEVVEMAIDDFKNNR
notes: heat precipitation and SEC; homodimer (119 kDa)
One may read the Km as the concentration of substrate that gives half-maximal velocity. On to B1, for which the Km in data set [1] was 0.55 ± 0.08 mM; in data set [2], 1.52 ± 0.4 mM.

The values above are taken from publication PMC12136491, “Establishment of an efficient one-step enzymatic synthesis of cyclic-2,3-diphosphoglycerate” (Frontiers in Microbiology, 2025).
